Assay results as given in the supplement of paper PMC12458215.
± gives the uncertainty stated by the source.

Each sequence was assayed on HEK293T (assay: plasma membrane surface immunostaining intensity (anti-HA, deep receptor scanning) (arbitrary fluorescence units); higher = higher plasma membrane expression). Settings: GPCR class: A.

Sequence | plasma membrane surface immunostaining intensity
MLPDWKSSLILMAYIIIFLTGLPANLLALRAFVGRIRQPQPAPVHILLLSLTLADLLLLLLLPFKIIEAASNFRWYLPKVVCALTSFGFYSSIYCSTWLLAGISIERYLGVAFPVQYKLSRRPLYGVIAALVAWVMSFGHCTIVIIVQYLNTTEQVRSGNEITCYENFTDNQLDVVLPVRLELCLVLFFIPMAVTIFCYWRFVWIMLSQPLVGAQRRRRAVGLAVVTLLNFLVCFGPYNVSHLVGYHQRKSPWWRSIAVVFSSLNASLDPLLFYFSSSVVRRAFGRGLQVLRNQGSSLLGRRGKDTAEGTNEDRGVGQGEGMPSSDFTTE [FFAR2] | 3600 ± 470
MEPAPSAGAELQPPLFANASDAYPSACPSAGANASGPPGARSASSLALAIAITALYSAVCAVGLLGNVLVMFGIVRYTKMKTATNIYIFNLALADALATSTLPFQSAKYLMETWPFGELLCKAVLSIDYYNMFTSIFTLTMMSVDRYIAVCHPVKALDFRTPAKAKLINICIWVLASGVGVPIMVMAVTRPRDGAVVCMLQFPSPSWYWDTVTKICVFLFAFVVPILIITVCYGLMLLRLRSVRLLSGSKEKDRSLRRITRMVLVVVGAFVVCWAPIHIFVIVWTLVDIDRRDPLVVAALHLCIALGYANSSLNPVLYAFLDENFKRCFRQLCRKPCGRPDPSSFSRAREATARERVTACTPSDGPGGGAAA [OPRD1] | 6220 ± 99
MQALNITPEQFSRLLRDHNLTREQFIALYRLRPLVYTPELPGRAKLALVLTGVLIFALALFGNALVFYVVTRSKAMRTVTNIFICSLALSDLLITFFCIPVTMLQNISDNWLGGAFICKMVPFVQSTAVVTEILTMTCIAVERHQGLVHPFKMKWQYTNRRAFTMLGVVWLVAVIVGSPMWHVQQLEIKYDFLYEKEHICCLEEWTSPVHQKIYTTFILVILFLLPLMVMLILYSKIGYELWIKKRVGDGSVLRTIHGKEMSKIARKKKRAVIMMVTVVALFAVCWAPFHVVHMMIEYSNFEKEYDDVTIKMIFAIVQIIGFSNSICNPIVYAFMNENFKKNVLSAVCYCIVNKTFSPAQRHGNSGITMMRKKAKFSLRENPVEETKGEAFSDGNIEVKLCEQTEEKKKLKRHLALFRSELAENSPLDSGH [QRFPR] | 392 ± 31
MDNASFSEPWPANASGPDPALSCSNASTLAPLPAPLAVAVPVVYAVICAVGLAGNSAVLYVLLRAPRMKTVTNLFILNLAIADELFTLVLPINIADFLLRQWPFGELMCKLIVAIDQYNTFSSLYFLTVMSADRYLVVLATAESRRVAGRTYSAARAVSLAVWGIVTLVVLPFAVFARLDDEQGRRQCVLVFPQPEAFWWRASRLYTLVLGFAIPVSTICVLYTTLLCRLHAMRLDSHAKALERAKKRVTFLVVAILAVCLLCWTPYHLSTVVALTTDLPQTPLVIAISYFITSLSYANSCLNPFLYAFLDASFRRNLRQLITCRAAA [NPBWR1] | 3950 ± 330
MEDLEETLFEEFENYSYDLDYYSLESDLEEKVQLGVVHWVSLVLYCLAFVLGIPGNAIVIWFTGFKWKKTVTTLWFLNLAIADFIFLLFLPLYISYVAMNFHWPFGIWLCKANSFTAQLNMFASVFFLTVISLDHYIHLIHPVLSHRHRTLKNSLIVIIFIWLLASLIGGPALYFRDTVEFNNHTLCYNNFQKHDPDLTLIRHHVLTWVKFIIGYLFPLLTMSICYLCLIFKVKKRSILISSRHFWTILVVVVAFVVCWTPYHLFSIWELTIHHNSYSHHVMQAGIPLSTGLAFLNSCLNPILYVLISKKFQARFRSSVAEILKYTLWEVSCSGTVSEQLRNSETKNLCLLETAQ [CMKLR2] | 510 ± 52
MVNNFSQAEAVELCYKNVNESCIKTPYSPGPRSILYAVLGFGAVLAAFGNLLVMIAILHFKQLHTPTNFLIASLACADFLVGVTVMPFSTVRSVESCWYFGDSYCKFHTCFDTSFCFASLFHLCCISVDRYIAVTDPLTYPTKFTVSVSGICIVLSWFFSVTYSFSIFYTGANEEGIEELVVALTCVGGCQAPLNQNWVLLCFLLFFIPNVAMVFIYSKIFLVAKHQARKIESTASQAQSSSESYKERVAKRERKAAKTLGIAMAAFLVSWLPYLVDAVIDAYMNFITPPYVYEILVWCVYYNSAMNPLIYAFFYQWFGKAIKLIVSGKVLRTDSSTTNLFSEEVETD [TAAR9] | 136 ± 34
MSLFLSNLSTNDSSLWKENHNSTDLLNPPGTLNIYLFCLTCLMTFAALVGSIYSLISLLKMQNRTVVSMLVASWSVDDLMSVLSVTIFMFLQWPNEVPGYFQFLCTTSALMYLCQGLSSNLKATLLVSYNFYTMHRGVGSQTASRRSGQVLGVVLTVWAASLLLSALPLCGWGAFVRTPWGCLVDCSSSYVLFLSIVYALAFGLLVGLSVPLTHRLLCSEEPPRLHSNYQEISRGASIPGTPPTAGRVVSLSPEDAPGPSLRRSGGCSPSSDTVFGPGAPAAAGAEACRRENRGTLYGTRSFTVSVAQKRFALILALTKVVLWLPMMMHMVVQNVVGFQSLPLETFSFLLTLLATTVTPVFVLSKRWTHLPCGCIINCRQNAYAVASDGKKIKRKGFEFNLSFQKSYGIYKIAHEDYYDDDENSIFYHNLMNSECETTKDPQRDNRNIFNAIKVEISTTPSLDSSTQRGINKCTNTDITEAKQDSNNKKDAFSDKTGGDINYEETTFSEGPERRLSHEESQKPDLSDWEWCRSKSERTPRQRSGYALAIPLCAFQGTVSLHAPTGKTLSLSTYEVSAEGQKITPASKKIEVYRSKSVGHEPNSEDSSSTFVDTSVKIHLEVLEICDNEEALDTVSIISNISQSSTQVRSPSLRYSRKENRFVSCDLGETASYSLFLPTSNPDGDINISIPDTVEAHRQNSKRQHQERDGYQEEIQLLNKAYRKREEESKGS [GPR149] | 1060 ± 320
MDVVDSLLVNGSNITPPCELGLENETLFCLDQPRPSKEWQPAVQILLYSLIFLLSVLGNTLVITVLIRNKRMRTVTNIFLLSLAVSDLMLCLFCMPFNLIPNLLKDFIFGSAVCKTTTYFMGTSVSVSTFNLVAISLERYGAICKPLQSRVWQTKSHALKVIAATWCLSFTIMTPYPIYSNLVPFTKNNNQTANMCRFLLPNDVMQQSWHTFLLLILFLIPGIVMMVAYGLISLELYQGIKFEASQKKSAKERKPSTTSSGKYEDSDGCYLQKTRPPRKLELRQLSTGSSSRANRIRSNSSAANLMAKKRVIRMLIVIVVLFFLCWMPIFSANAWRAYDTASAERRLSGTPISFILLLSYTSSCVNPIIYCFMNKRFRLGFMATFPCCPNPGPPGARGEVGEEEEGGTTGASLSRFSYSHMSASVPPQ [CCKAR] | 6447 ± 43

Same assay, conditions: GPCR class: A (Olfactory)

Sequence | plasma membrane surface immunostaining intensity
MVWENQTFNSIFILLGIFNHSPTHTFLFSLVLGIFSLALMENISMVLLIYIEKQLHTPMYFLLSQLSLMDLMLICTTLPKMIFSYLSGKKSISLAGCGTQIFFYVSLLGAECFLLAVMAYDRYVAICHPLQYTILMNPKLCVFMTVASWTLGSLDGIIVLAAVLSFSYCSSLEIHHFFCDVAALLPLSCTETSAFERLLVICCVVMLIFPVSVIILSYSHVLRAVIHMGSGESRRKAFTTCSSHLSVVGLYYGAAMFMYMRPASKHTPDQDKMVSAFYTILTPMLNPLIYSLRNKEVFRALQKVLKKRKLI [OR2M4] | 172 ± 36
MLGPAYNHTMETPASFLLVGIPGLQSSHLWLAISLSAMYITALLGNTLIVTAIWMDSTRHEPMYCFLCVLAAVDIVMASSVVPKMVSIFCSGDSSISFSACFTQMFFVHLATAVETGLLLTMAFDRYVAICKPLHYKRILTPQVMLGMSMAVTIRAVTFMTPLSWMMNHLPFCGSNVVVHSYCKHIALARLACADPVPSSLYSLIGSSLMVGSDVAFIAASYILILRAVFDLSSKTAQLKALSTCGSHVGVMALYYLPGMASIYAAWLGQDIVPLHTQVLLADLYVIIPATLNPIIYGMRTKQLLEGIWSYLMHFLFDHSNLGS [OR52I1] | 157 ± 16
MERGNQTEVGNFLLLGFAEDSDMQLLLHGLFLSMYLVTIIGNLLIILTISSDSHLHTPMYFFLSNLSFADICFTSTTVPKMLVNIQTQSKMITFAGCLTQIFFFIAFGCLDNLLLTMTAYDRFVAICYPLHYTVIMNPRLCGLLVLGSWCISVMGSLLETLTILRLSFCTNMEIPHFFCDPSEVLKLACSDTFINNIVMYFVTIVLGVFPLCGILFSYSQIFSSVLRVSARGQHKAFSTCGSHLSVVSLFYGTGLGVYLSSAVTPPSRTSLAASVMYTMVTPMLNPFIYSLRNKDMKGSLGRLLLRATSLKEGTIAKLS [OR7C2] | 131 ± 26
MEPLNRTEVSEFFLKGFSGYPALEHLLFPLCSAMYLVTLLGNTAIMAVSVLDIHLHTPVYFFLGNLSTLDICYTPTFVPLMLVHLLSSRKTISFAVCAIQMCLSLSTGSTECLLLAITAYDRYLAICQPLRYHVLMSHRLCVLLMGAAWVLCLLKSVTEMVISMRLPFCGHHVVSHFTCKILAVLKLACGNTSVSEDFLLAGSILLLPVPLAFICLSYLLILATILRVPSAARCCKAFSTCLAHLAVVLLFYGTIIFMYLKPKSKEAHISDEVFTVLYAMVTTMLNPTIYSLRNKEVKEAARKVWGRSRASR [OR13J1] | 140 ± 33
MGKTKNTSLDAVVTDFILLGLSHPPNLRSLLFLVFFIIYILTQLGNLLILLTMWADPKLCARPMYILLGVLSFLDMWLSSVTVPLLILDFTPSIKAIPFGGCVAQLYFFHFLGSTQCFLYTLMAYDRYLAICQPLRYPVLMNGRLCTVLVAGAWVAGSMHGSIQATLTFRLPYCGPNQVDYFICDIPAVLRLACADTTVNELVTFVDVGVVAASCFMLILLSYANIVNAILKIRTTDGRRRAFSTCGSHLIVVTVYYVPCIFIYLRAGSKDPLDGAAAVFYTVVTPLLNPLIYTLRNQEVKSALKRITAG [OR10G2] | 111 ± 16

Same assay, conditions: GPCR class: B

Sequence | plasma membrane surface immunostaining intensity
MDRRMWGAHVFCVLSPLPTVLGHMHPECDFITQLREDESACLQAAEEMPNTTLGCPATWDGLLCWPTAGSGEWVTLPCPDFFSHFSSESGAVKRDCTITGWSEPFPPYPVACPVPLELLAEEESYFSTVKIIYTVGHSISIVALFVAITILVALRRLHCPRNYVHTQLFTTFILKAGAVFLKDAALFHSDDTDHCSFSTVLCKVSVAASHFATMTNFSWLLAEAVYLNCLLASTSPSSRRAFWWLVLAGWGLPVLFTGTWVSCKLAFEDIACWDLDDTSPYWWIIKGPIVLSVGVNFGLFLNIIRILVRKLEPAQGSLHTQSQYWRLSKSTLFLIPLFGIHYIIFNFLPDNAGLGIRLPLELGLGSFQGFIVAILYCFLNQEVRTEISRKWHGHDPELLPAWRTRAKWTTPSRSAAKVLTSMC [GHRHR] | 108 ± 5.4

Same assay, conditions: GPCR class: Taste

Sequence | plasma membrane surface immunostaining intensity
MMGLTEGVFLILSGTQFTLGILVNCFIELVNGSSWFKTKRMSLSDFIITTLALLRIILLCIILTDSFLIEFSPNTHDSGIIMQIIDVSWTFTNHLSIWLATCLGVLYCLKIASFSHPTFLWLKWRVSRVMVWMLLGALLLSCGSTASLINEFKLYSVFRGIEATRNVTEHFRKKRSEYYLIHVLGTLWYLPPLIVSLASYSLLIFSLGRHTRQMLQNGTSSRDPTTEAHKRAIRIILSFFFLFLLYFLAFLIASFGNFLPKTKMAKMIGEVMTMFYPAGHSFILILGNSKLKQTFVVMLRCESGHLKPGSKGPIFS [TAS2R3] | 135 ± 22
